These results are taken from patent US20190127451A1.

This test deals with alternative-spliced domain A1 of human Tenascin C (human) (UniProt P24821). Kind of test: SPR (BIAcore), antibody over hTnC A1 on CM5 chip, fitted 50 nM curves. (In general: SPR reads the build-up and loss of mass on a sensor chip optically.)
UniProt P24821, sequence (P24821 1072-1162): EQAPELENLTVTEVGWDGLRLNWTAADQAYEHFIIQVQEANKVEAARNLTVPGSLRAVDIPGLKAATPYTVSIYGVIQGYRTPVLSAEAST

B1: IgG(F16)-3S-N88Q (antibody, V domains shown)
VH: EVQLLESGGGLVQPGGSLRLSCAASGFTFSRYGMSWVRQAPGKGLEWVSAISGSGGSTYYADSVKGRFTISRDNSKNTLYLQMNSLRAEDTAVYYCAKAHNAFDYWGQGTLVTVSS
VL: SSELTQDPAVSVALGQTVRITCQGDSLRSYYASWYQQKPGQAPVLVIYGKNNRPSGIPDRFSGSSSGNTASLTITGAQAEDEADYYCQSSVYTMPPVVFGGGTKLTVLG
modifications: glycosylated Heavy Chain (site not given)
As for B1, the fold lower apparent KD than wild-type IgG(F16)-3S is 4 to 8 fold.
